Patent publication US20050032185

B1: GST-DSTPK61 (residues 1-752 of Drosophila Serine/Threonine Protein Kinase-61, expressed in E. coli) (protein)
chain: MKCKSWSNKINNYVVRKIKSIKINGTQQQLQLPGSGASGIAAAAVITVASDCGENCSSNGTEHQQHFNIATTTATSATEATMPAMAKEKASATVSLGESNFRDINLKDLAVVVEAASRLHHQQNVCGCGAVSSTENNNNSRYGSSKYLTNGHTSPLAAAVASNSSSVATTPHCRMLHNCSLQQYQNDIRQQTEILDMLRQQHQQGYQSQQQQQQPQQQQEQQQQQEQSQQQQQLQNPAPRRSPNDFIFGRYIGEGSYSIVYLAVDIHSRREYAIKVCEKRLILRERKQDYIKREREVMHQMTNVPGFVNLSCTFQDQRSLYFVMTYARKGDMLPYINRVGSFDVACTRHYAAELLLACEHMHRRNVVHRDLKPENILLDEDMHTLIADFGSAKVMTAHERALATEHCSEQRRSNSDEDDEDSDRLENEDEDFYDRDSEELDDGDDEQQQEEMDSPRHRQRRYNRHRKASFVGTAQYVSPEVLQNGPITPAADLWALGCIVYQMIAGLPPFRGSNDYVIFKEILDCAVDFPQGFDKDAEDLVRKLLRVDPRDRLGAQDEFGYYESIRAHPFFAGIDWQTLRQQTPPPIYPYLPGVSQDEDFRSSYTVPGDLEPGLDERQISRLLSAELGVGSSVAMPVKRSTAKNSFDLNDAEKLQRLEQQKTDKWHVFADGEVILKKGFVNKRKGLFARKRMLLLTTGPRLIYIDPVQMIKKGEIPWSPDLRAEYKNFKIFFVHTPNRTYYLDDPEGYAIHW
B2: PDK1 (form and source not specified in the sentence) (enzyme, UniProt O15530 1-556, looked up, species assumed)
3-phosphoinositide-dependent protein kinase 1: MARTTSQLYDAVPIQSSVVLCSCPSPSMVRTQTESSTPPGIPGGSRQGPAMDGTAAEPRPGAGSLQHAQPPPQPRKKRPEDFKFGKILGEGSFSTVVLARELATSREYAIKILEKRHIIKENKVPYVTRERDVMSRLDHPFFVKLYFTFQDDEKLYFGLSYAKNGELLKYIRKIGSFDETCTRFYTAEIVSALEYLHGKGIIHRDLKPENILLNEDMHIQITDFGTAKVLSPESKQARANSFVGTAQYVSPELLTEKSACKSSDLWALGCIIYQLVAGLPPFRAGNEYLIFQKIIKLEYDFPEKFFPKARDLVEKLLVLDATKRLGCEEMEGYGPLKAHPFFESVTWENLHQQTPPKLTAYLPAMSEDDEDCYGNYDNLLSQFGCMQVSSSSSSHSLSASDTGLPQRSGSNIEQYIHDLDSNSFELDLQFSEDEKRLLLEKQAGGNPWHQFVENNLILKMGPVDKRKGLFARRRQLLLTEGPHLYYVDPVNKVLKGEIPWSQELRPEAKNFKTFFVHTPNRTYYLMDPSGNAHKWCRKIQEVWRQRYQSHPDAAVQ

Legend:
[1] = target: GST-PKBα (full length human protein kinase Bα with N-terminal glutathione S-transferase, from unstimulated 293 cells) [GST: P08515]
Sequence of GST-PKBα (full length human protein kinase Bα with N-terminal glutathione S-transferase, from unstimulated 293 cells) [GST: P08515] (P08515 whole entry, looked up): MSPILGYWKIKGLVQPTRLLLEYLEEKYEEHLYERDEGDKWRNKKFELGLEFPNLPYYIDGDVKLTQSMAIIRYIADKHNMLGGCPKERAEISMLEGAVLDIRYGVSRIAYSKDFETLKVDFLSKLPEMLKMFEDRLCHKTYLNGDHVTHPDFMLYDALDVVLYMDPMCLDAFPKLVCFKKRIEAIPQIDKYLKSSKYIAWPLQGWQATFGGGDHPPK

Sequence of protein kinase Bγ (Q9Y243 2-479): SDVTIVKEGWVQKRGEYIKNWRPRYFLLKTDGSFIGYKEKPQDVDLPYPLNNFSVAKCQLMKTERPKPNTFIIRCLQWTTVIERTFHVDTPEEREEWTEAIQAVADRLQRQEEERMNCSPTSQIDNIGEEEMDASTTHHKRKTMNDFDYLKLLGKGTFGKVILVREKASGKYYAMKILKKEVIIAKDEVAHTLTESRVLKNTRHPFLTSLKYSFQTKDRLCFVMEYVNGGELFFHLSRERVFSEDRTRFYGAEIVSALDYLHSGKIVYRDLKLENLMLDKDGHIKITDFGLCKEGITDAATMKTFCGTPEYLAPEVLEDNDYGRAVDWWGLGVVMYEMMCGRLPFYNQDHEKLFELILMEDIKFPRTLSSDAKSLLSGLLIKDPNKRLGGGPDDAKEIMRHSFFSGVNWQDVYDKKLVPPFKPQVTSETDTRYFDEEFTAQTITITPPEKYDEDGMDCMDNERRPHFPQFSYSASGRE

| Protein | increase in GST-PKBα activity at maximal phosphorylation [1] | maximal phosphorylation of GST-PKBα (mol phosphate per mol protein) [1] | specific activity towards GST-PKBα in the presence of PtdIns(3,4,5)P3 [1] | phosphorylation (p70 S6 kinase) | phosphorylation and activation (protein kinase Bγ) | phosphorylation and activation (protein kinase Bβ) |
| --- | --- | --- | --- | --- | --- | --- |
| B1 | paralleled by a 35 fold increase in activity | the phosphorylation of GST-PKBα reached 0.75 mol phosphate per mol protein | bacterially expressed GST-DST PK61 (280 U/mg) | – | – | – |
| B2 | – | – | – | PDK1 has been shown by us to phosphorylate p70 S6 kinase in the absence of InsPtd(3,4,5)P3 | PDK1 phosphorylates and activates not only PKBα but also PKBβ and PKBγ | PDK1 phosphorylates and activates not only PKBα but also PKBβ and PKBγ |
